From patent US20160311913A1 (Amgen, published 2016)

Molecular target: human CGRP receptor (human, UniProt Q16602 23-461; O60894 27-148)
Assay: cell-based or functional assay

human CGRP receptor, sequence (Q16602 23-461 limits assumed, chain 1 of 2): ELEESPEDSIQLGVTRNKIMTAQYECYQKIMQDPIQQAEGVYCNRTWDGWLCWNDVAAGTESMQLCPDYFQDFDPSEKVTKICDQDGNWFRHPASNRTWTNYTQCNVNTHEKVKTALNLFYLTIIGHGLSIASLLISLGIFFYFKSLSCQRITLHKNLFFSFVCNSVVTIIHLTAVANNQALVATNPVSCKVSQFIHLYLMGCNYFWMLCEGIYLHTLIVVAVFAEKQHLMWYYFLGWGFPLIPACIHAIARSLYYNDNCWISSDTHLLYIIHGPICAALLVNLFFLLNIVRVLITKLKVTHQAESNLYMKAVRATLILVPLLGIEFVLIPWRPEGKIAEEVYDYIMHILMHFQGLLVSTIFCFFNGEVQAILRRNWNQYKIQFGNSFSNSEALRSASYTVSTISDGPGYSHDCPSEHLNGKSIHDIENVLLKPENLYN
human CGRP receptor, sequence (O60894 27-148 limits assumed, chain 2 of 2): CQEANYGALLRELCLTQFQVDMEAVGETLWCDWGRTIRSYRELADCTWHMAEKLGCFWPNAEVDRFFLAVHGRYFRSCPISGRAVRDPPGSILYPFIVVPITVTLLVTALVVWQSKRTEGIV

B1: AMG 334 (antibody, human IgG2, lambda, V domains shown)
VH: QVQLVESGGGVVQPGRSLRLSCAASGFTFSSFGMHWVRQAPGKGLEWVAVISFDGSIKYSVDSVKGRFTISRDNSKNTLFLQMNSLRAEDTAVYYCARDRLNYYDSSGYYHYKYYGMAVWGQGTTVTVSS
VL: QSVLTQPPSVSAAPGQKVTISCSGSSSNIGNNYVSWYQQLPGTAPKLLIYDNNKRPSGIPDRFSGSKSGTSTTLGITGLQTGDEADYYCGTWDSRLSAVVFGGGTKLTVLG
- serum AMG 334 concentration associated with the half maximal effect (EC50) on capsaicin-induced DBF: 0.286 µg/mL
- serum AMG 334 concentration for 50% of maximal inhibition of capsaicin-induced dermal blood flow (EC50): 0.218 µg/mL
